Measured values taken from the supplement of paper PMC5998384.

Key:
HeLa Kyoto [1] = assay: solubility in G1/S (NP-40 vs SDS abundance) (log2 ratio); higher = more soluble; settings: cell cycle stage: G1/S
HeLa Kyoto [2] = assay: melting temperature (median over replicates), in situ; higher = more thermally stable
HeLa Kyoto [3] = assay: solubility change mitosis vs G1/S (difference of NP-40 vs SDS log2 ratios) (log2 ratio difference); higher = more soluble in mitosis
HeLa Kyoto [4] = assay: thermal stability score vs G1/S (z-score of summed log2 fold changes over temperatures); higher = more thermally stable than in G1/S
[5] = cell cycle stage: early G1 (4.5 h after nocodazole release)
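For melting temperature (median over replicates), in situ in this document: HeLa Kyoto cells synchronized by double thymidine or nocodazole block, proteins quantified by TMT10plex mass spectrometry, three independent biological replicates.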
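For solubility change mitosis vs G1/S (difference of NP-40 vs SDS log2 ratios) in this document: synchronized HeLa Kyoto cells (double thymidine block for G1/S, nocodazole release for mitosis), protein amounts in NP-40 versus SDS lysates quantified by mass spectrometry, three biological replicates.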
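For solubility in G1/S (NP-40 vs SDS abundance) in this document: HeLa Kyoto cells arrested at G1/S by double thymidine block, proteins quantified by TMT10plex mass spectrometry in mild NP-40 versus SDS extracts, three biological replicates.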
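For thermal stability score vs G1/S (z-score of summed log2 fold changes over temperatures) in this document: synchronized HeLa Kyoto cells, proteins quantified by TMT10plex mass spectrometry, three biological replicates, mitosis taken 0.5 h after nocodazole release, G1/S directly after double thymidine block.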

Sequence | solubility in G1/S (log2) (HeLa Kyoto [1]) | melting temperature (HeLa Kyoto [2]; cell cycle stage: mitosis) | solubility change mitosis (log2) (HeLa Kyoto [3]) | thermal stability score (HeLa Kyoto [4]; [5]) | thermal stability score (HeLa Kyoto [4]; cell cycle stage: mitosis) | melting temperature (HeLa Kyoto [2]; cell cycle stage: G1/S)
MVRKPVVSTISKGGYLQGNVNGRLPSLGNKEPPGQEKVQLKRKVTLLRGVSIIIGTIIGAGIFISPKGVLQNTGSVGMSLTIWTVCGVLSLFGALSYAELGTTIKKSGGHYTYILEVFGPLPAFVRVWVELLIIRPAATAVISLAFGRYILEPFFIQCEIPELAIKLITAVGITVVMVLNSMSVSWSARIQIFLTFCKLTAILIIIVPGVMQLIKGQTQNFKDAFSGRDSSITRLPLAFYYGMYAYAGWFYLNFVTEEVENPEKTIPLAICISMAIVTIGYVLTNVAYFTTINAEELLLSNAVAVTFSERLLGNFSLAVPIFVALSCFGSMNGGVFAVSRLFYVASREGHLPEILSMIHVRKHTPLPAVIVLHPLTMIMLFSGDLDSLLNFLSFARWLFIGLAVAGLIYLRYKCPDMHRPFKVPLFIPALFSFTCLFMVALSLYSDPFSTGIGFVITLTGVPAYYLFIIWDKKPRWFRIMSEKITRTLQIILEVVPEEDKL [SLC7A11] | -0.0116 | 57.5 °C | -0.169 | 0.372 | 0.123 | 
MVRPVRHKKPVNYSQFDHSDSDDDFVSATVPLNKKSRTAPKELKQDKPKPNLNNLRKEEIPVQEKTPKKRLPEGTFSIPASAVPCTKMALDDKLYQRDLEVALALSVKELPTVTTNVQNSQDKSIEKHGSSKIETMNKSPHISNCSVASDYLDLDKITVEDDVGGVQGKRKAASKAAAQQRKILLEGSDGDSANDTEPDFAPGEDSEDDSDFCESEDNDEDFSMRKSKVKEIKKKEVKVKSPVEKKEKKSKSKCNALVTSVDSAPAAVKSESQSLPKKVSLSSDTTRKPLEIRSPSAESKKPKWVPPAASGGSRSSSSPLVVVSVKSPNQSLRLGLSRLARVKPLHPNATST [RAD51AP1] | 0.0638 | 58 °C | 0.203 | 1.26 | 7.25 | 53.8 °C
MVSHSELRKLFYSADAVCFDVDSTVIREEGIDELAKICGVEDAVSEMTRRAMGGAVPFKAALTERLALIQPSREQVQRLIAEQPPHLTPGIRELVSRLQERNVQVFLISGGFRSIVEHVASKLNIPATNVFANRLKFYFNGEYAGFDETQPTAESGGKGKVIKLLKEKFHFKKIIMIGDGATDMEACPPADAFIGFGGNVIRQQVKDNAKWYITDFVELLGELEE [PSPH] | 0.258 | 58.2 °C | -0.049 | -0.555 | -0.969 | 56.6 °C
MVSIPEYYEGKNVLLTGATGFLGKVLLEKLLRSCPKVNSVYVLVRQKAGQTPQERVEEVLSGKLFDRLRDENPDFREKIIAINSELTQPKLALSEEDKEVIIDSTNIIFHCAATVRFNENLRDAVQLNVIATRQLILLAQQMKNLEVFMHVSTAYAYCNRKHIDEVVYPPPVDPKKLIDSLEWMDDGLVNDITPKLIGDRPNTYIYTKALAEYVVQQEGAKLNVAIVRPSIVGASWKEPFPGWIDNFNGPSGLFIAAGKGILRTIRASNNALADLVPVDVVVNMSLAAAWYSGVNRPRNIMVYNCTTGSTNPFHWGEVEYHVISTFKRNPLEQAFRRPNVNLTSNHLLYHYWIAVSHKAPAFLYDIYLRMTGRSPRMMKTITRLHKAMVFLEYFTSNSWVWNTENVNMLMNQLNPEDKKTFNIDVRQLHWAEYIENYCLGTKKYVLNEEMSGLPAARKHLNKLRNIRYGFNTILVILIWRIFIARSQMARNIWYFVVSLCYKFLSYFRASSTMRY [FAR1] | -0.254 | 51.2 °C | -0.0436 | 0.0485 | 0.111 | 51.7 °C
MVSKALLRLVSAVNRRRMKLLLGIALLAYVASVWGNFVNMRSIQENGELKIESKIEEMVEPLREKIRDLEKSFTQKYPPVKFLSEKDRKRILITGGAGFVGSHLTDKLMMDGHEVTVVDNFFTGRKRNVEHWIGHENFELINHDVVEPLYIEVDQIYHLASPASPPNYMYNPIKTLKTNTIGTLNMLGLAKRVGARLLLASTSEVYGDPEVHPQSEDYWGHVNPIGPRACYDEGKRVAETMCYAYMKQEGVEVRVARIFNTFGPRMHMNDGRVVSNFILQALQGEPLTVYGSGSQTRAFQYVSDLVNGLVALMNSNVSSPVNLGNPEEHTILEFAQLIKNLVGSGSEIQFLSEAQDDPQKRKPDIKKAKLMLGWEPVVPLEEGLNKAIHYFRKELEYQANNQYIPKPKPARIKKGRTRHS [UXS1] | 0.264 | 54.7 °C | -0.193 | 0.535 | -0.237 | 54.6 °C
MVSRPEPEGEAMDAELAVAPPGCSHLGSFKVDNWKQNLRAIYQCFVWSGTAEARKRKAKSCICHVCGVHLNRLHSCLYCVFFGCFTKKHIHEHAKAKRHNLAIDLMYGGIYCFLCQDYIYDKDMEIIAKEEQRKAWKMQGVGEKFSTWEPTKRELELLKHNPKRRKITSNCTIGLRGLINLGNTCFMNCIVQALTHTPLLRDFFLSDRHRCEMQSPSSCLVCEMSSLFQEFYSGHRSPHIPYKLLHLVWTHARHLAGYEQQDAHEFLIAALDVLHRHCKGDDNGKKANNPNHCNCIIDQIFTGGLQSDVTCQVCHGVSTTIDPFWDISLDLPGSSTPFWPLSPGSEGNVVNGESHVSGTTTLTDCLRRFTRPEHLGSSAKIKCSGCHSYQESTKQLTMKKLPIVACFHLKRFEHSAKLRRKITTYVSFPLELDMTPFMASSKESRMNGQYQQPTDSLNNDNKYSLFAVVNHQGTLESGHYTSFIRQHKDQWFKCDDAIITKASIKDVLDSEGYLLFYHKQFLEYE [USP22] | -0.542 | 49.6 °C | -0.0588 | 0.773 | 1.56 | 48.1 °C
MVTVGNYCEAEGPVGPAWMQDGLSPCFFFTLVPSTRMALGTLALVLALPCRRRERPAGADSLSWGAGPRISPYVLQLLLATLQAALPLAGLAGRVGTARGAPLPSYLLLASVLESLAGACGLWLLVVERSQARQRLAMGIWIKFRHSPGLLLLWTVAFAAENLALVSWNSPQWWWARADLGQQVQFSLWVLRYVVSGGLFVLGLWAPGLRPQSYTLQVHEEDQDVERSQVRSAAQQSTWRDFGRKLRLLSGYLWPRGSPALQLVVLICLGLMGLERALNVLVPIFYRNIVNLLTEKAPWNSLAWTVTSYVFLKFLQGGGTGSTGFVSNLRTFLWIRVQQFTSRRVELLIFSHLHELSLRWHLGRRTGEVLRIADRGTSSVTGLLSYLVFNVIPTLADIIIGIIYFSMFFNAWFGLIVFLCMSLYLTLTIVVTEWRTKFRRAMNTQENATRARAVDSLLNFETVKYYNAESYEVERYREAIIKYQGLEWKSSASLVLLNQTQNLVIGLGLLAGSLLCAYFVTEQKLQVGDYVLFGTYIIQLYMPLNWFGTYYRMIQTNFIDMENMFDLLKEETEVKDLPGAGPLRFQKGRIEFENVHFSYADGRETLQDVSFTVMPGQTLALVGPSGAGKSTILRLLFRFYDISSGCIRIDGQDISQVTQASLRSHIGVVPQDTVLFNDTIADNIRYGRVTAGNDEVEAAAQAAGIHDAIMAFPEGYRTQVGERGLKLSGGEKQRVAIARTILKAPGIILLDEATSALDTSNERAIQASLAKVCANRTTIVVAHRLSTVVNADQILVIKDGCIVERGRHEALLSRGGVYADMWQLQQGQEETSEDTKPQTMER [ABCB6] | -0.0102 | 53.4 °C | -0.128 | -1.04 | -3.83 | 54 °C
MVVMARLSRPERPDLVFEEEDLPYEEEIMRNQFSVKCWLRYIEFKQGAPKPRLNQLYERALKLLPCSYKLWYRYLKARRAQVKHRCVTDPAYEDVNNCHERAFVFMHKMPRLWLDYCQFLMDQGRVTHTRRTFDRALRALPITQHSRIWPLYLRFLRSHPLPETAVRGYRRFLKLSPESAEEYIEYLKSSDRLDEAAQRLATVVNDERFVSKAGKSNYQLWHELCDLISQNPDKVQSLNVDAIIRGGLTRFTDQLGKLWCSLADYYIRSGHFEKARDVYEEAIRTVMTVRDFTQVFDSYAQFEESMIAAKMETASELGREEEDDVDLELRLARFEQLISRRPLLLNSVLLRQNPHHVHEWHKRVALHQGRPREIINTYTEAVQTVDPFKATGKPHTLWVAFAKFYEDNGQLDDARVILEKATKVNFKQVDDLASVWCQCGELELRHENYDEALRLLRKATALPARRAEYFDGSEPVQNRVYKSLKVWSMLADLEESLGTFQSTKAVYDRILDLRIATPQIVINYAMFLEEHKYFEESFKAYERGISLFKWPNVSDIWSTYLTKFIARYGGRKLERARDLFEQALDGCPPKYAKTLYLLYAQLEEEWGLARHAMAVYERATRAVEPAQQYDMFNIYIKRAAEIYGVTHTRGIYQKAIEVLSDEHAREMCLRFADMECKLGEIDRARAIYSFCSQICDPRTTGAFWQTWKDFEVRHGNEDTIKEMLRIRRSVQATYNTQVNFMASQMLKVSGSATGTVSDLAPGQSGMDDMKLLEQRAEQLAAEAERDQPLRAQSKILFVRSDASREELAELAQQVNPEEIQLGEDEDEDEMDLEPNEVRLEQQSVPAAVFGSLKED [XAB2] | -0.31 | 48.4 °C | 0.0385 | 2.02 | 4.49 | 47.4 °C
